T1: human P-selectin glycoprotein ligand-1 (PSGL-1), expressed on Sp2/0-hPSGL-1 cells (human, UniProt Q14242 42-412)
T1 sequence: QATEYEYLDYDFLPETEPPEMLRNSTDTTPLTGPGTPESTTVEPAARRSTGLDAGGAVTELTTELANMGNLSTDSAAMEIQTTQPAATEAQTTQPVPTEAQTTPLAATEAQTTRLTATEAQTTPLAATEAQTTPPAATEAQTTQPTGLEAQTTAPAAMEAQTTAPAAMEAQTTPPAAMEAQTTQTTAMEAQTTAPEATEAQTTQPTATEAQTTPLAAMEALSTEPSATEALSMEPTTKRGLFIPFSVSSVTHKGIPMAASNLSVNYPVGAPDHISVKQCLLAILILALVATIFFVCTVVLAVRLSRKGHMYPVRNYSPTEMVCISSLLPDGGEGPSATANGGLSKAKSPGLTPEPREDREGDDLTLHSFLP


How the values were obtained:
[1] = molecular target: T1, human P-selectin glycoprotein ligand-1 …; test: cell-based or functional assay
[2] = molecular target: T1, human P-selectin glycoprotein ligand-1 …; test: flow cytometry on Sp2/0-hPSGL-1 cells, antibody at 3 µg/mL
Procedure: (§1) Sp2/0 cells transfected with human PSGL-1 (Sp2/0-hPSGL1) were used as the PSGL-1 expressing cell line. Sp2/0-hPSGL1 cells were centrifuged at 1200 rpm for 5 min. The cell pellets were resuspended in FACS buffer (PBS containing 1% FBS) and pipetted into 96 well plate (1×10⁵ cells/well). To each well was added 100 μl of supernatants containing humanized 15A7H (h15A7H)/tetravalent antibodies, and these were incubated for 60 min at 4° C. The cells were washed three times with cold FACS buffer and then incubated with 100 μl of Mouse Anti-Human IgG₄ pFc′-PE (SouthernBiotech Cat. no. 9190-09) at 1 μg/ml concentration for 60 min at 4° C. Subsequently, the cells were washed three times with cold FACS buffer and analyzed by FACS analysis. All flow cytometric analyses were performed on a BD-LSR flow cytometer (Becton Dickinson) using the Cell Quest software.
(§2) The binding ability of h15A7H tetravalent antibodies was evaluated in human PSGL-1 SP2/O cells. The h15A7H tetravalent antibody bound positively to the SP2/O-hPSGL-1, but not to parental SP2/O cell lacking of hPSGL-1 antigen (Table A below). Additionally, wild type h15A7H and all of h15A7H tetravalent antibodies gave similar binding activity on SP2/O-hPSGL-1 (Table A).

[3] = molecular target: T1, human P-selectin glycoprotein ligand-1 …; test: flow cytometry on Sp2/0-hPSGL-1 cells, antibody at 0.1 µg/mL
Procedure: as §1, §2

[4] = molecular target: T1, human P-selectin glycoprotein ligand-1 …; test: flow cytometry on Sp2/0-hPSGL-1 cells, antibody at 0.3 µg/mL
Procedure: as §1, §2

[5] = molecular target: T1, human P-selectin glycoprotein ligand-1 …; test: flow cytometry on Sp2/0-hPSGL-1 cells, antibody at 1 µg/mL
Procedure: as §1, §2

Row | Binder | Apoptosis % (background subtracted, n = 4), mean, at 0.0625 µg/mL, SP2/O-hPSGL-1 cells, Annexin V/PI [1] [%] | Apoptosis % (background subtracted, n = 4), mean, at 0.5 µg/mL, SP2/O-hPSGL-1 cells, Annexin V/PI [1] [%] | mean fluorescence intensity [2] [MFI] | mean fluorescence intensity [3] [MFI] | mean fluorescence intensity [4] [MFI] | mean fluorescence intensity [5] [MFI]
1 | h15A7H scFv4-crIgG4p (antibody, Tetravalent: four v2 scFv units fused without a linker to the N-termini of the kappa and IgG4p constant regions) light: EVQLVESGGGLVQPGGSLRLSCAASGFTFSSFGMHWVRQAPGKCLEWVAYINGGSSTIFYANAVKGRFTISRDNAKNTLYLQMNSLRAEDTAVYYCARYASYGGGAMDYWGQGTLVTVSSGGGGSGGGGSGGGGSGGGGSGGGGSDIQMTQSPSSLSASVGDRVTITCRSSQSIVHNDGNTYFEWYQQKPGKAPKLLIYKVSNRFSGVPSRFSGSGSGTHFTLTISSLQPEDFATYYCFQGSYVPLTFGCGTKVEIKRTVAAPSVFIFPPSDEQLKSGTASVVCLLNNFYPREAKVQWKVDNALQSGNSQESVTEQDSKDSTYSLSSTLTLSKADYEKHKVYACEVTHQGLSSPVTKSFNRGEC heavy: not shown | 1.75 | 35.8 | 5940 | 2640 | 4640 | 6010
2 | h15A7H (antibody, IgG4, V domains shown, Bivalent humanized IgG4 kappa antibody with the S228P hinge mutation; also called humanized 15A7H; wild type h15A7H; not shown: human immunoglobulin kappa light chain constant region) VH: EVQLVESGGGLVQPGGSLRLSCAASGFTFSSFGMHWVRQAPGKGLEWVAYINGGSSTIFYANAVKGRFTISRDNAKNTLYLQMNSLRAEDTAVYYCARYASYGGGAMDYWGQGTLVTVSS VL: DIQMTQSPSSLSASVGDRVTITCRSSQSIVHNDGNTYFEWYQQKPGKAPKLLIYKVSNRFSGVPSRFSGSGSGTHFTLTISSLQPEDFATYYCFQGSYVPLTFGQGTKVEIK | 1.5 | 2.75 | 4670 | 3410 | 5940 | 6400
3 | h15A7H scFv2-LC-IgG4p (antibody, Tetravalent: a v2 scFv fused to the N-terminus of each kappa light chain of h15A7H IgG4p) light: EVQLVESGGGLVQPGGSLRLSCAASGFTFSSFGMHWVRQAPGKCLEWVAYINGGSSTIFYANAVKGRFTISRDNAKNTLYLQMNSLRAEDTAVYYCARYASYGGGAMDYWGQGTLVTVSSGGGGSGGGGSGGGGSGGGGSGGGGSDIQMTQSPSSLSASVGDRVTITCRSSQSIVHNDGNTYFEWYQQKPGKAPKLLIYKVSNRFSGVPSRFSGSGSGTHFTLTISSLQPEDFATYYCFQGSYVPLTFGCGTKVEIKASTGSGGGGSDIQMTQSPSSLSASVGDRVTITCRSSQSIVHNDGNTYFEWYQQKPGKAPKLLIYKVSNRFSGVPSRFSGSGSGTHFTLTISSLQPEDFATYYCFQGSYVPLTFGQGTKVEIKRTVAAPSVFIFPPSDEQLKSGTASVVCLLNNFYPREAKVQWKVDNALQSGNSQESVTEQDSKDSTYSLSSTLTLSKADYEKHKVYACEVTHQGLSSPVTKSFNRGEC heavy: not shown | 15.5 | 23.8 | 4380 | 5540 | 7060 | 5740
4 | h15A7H LC-scFv2-IgG4p (antibody, Tetravalent: a v2 scFv fused to the C-terminus of each kappa light chain of h15A7H IgG4p) light: DIQMTQSPSSLSASVGDRVTITCRSSQSIVHNDGNTYFEWYQQKPGKAPKLLIYKVSNRFSGVPSRFSGSGSGTHFTLTISSLQPEDFATYYCFQGSYVPLTFGQGTKVEIKRTVAAPSVFIFPPSDEQLKSGTASVVCLLNNFYPREAKVQWKVDNALQSGNSQESVTEQDSKDSTYSLSSTLTLSKADYEKHKVYACEVTHQGLSSPVTKSFNRGECGGGGSGGGGSEVQLVESGGGLVQPGGSLRLSCAASGFTFSSFGMHWVRQAPGKCLEWVAYINGGSSTIFYANAVKGRFTISRDNAKNTLYLQMNSLRAEDTAVYYCARYASYGGGAMDYWGQGTLVTVSSGGGGSGGGGSGGGGSGGGGSGGGGSDIQMTQSPSSLSASVGDRVTITCRSSQSIVHNDGNTYFEWYQQKPGKAPKLLIYKVSNRFSGVPSRFSGSGSGTHFTLTISSLQPEDFATYYCFQGSYVPLTFGCGTKVEIKAAAHHHHHHHHHH heavy: not shown | 0.5 | 18 | 6030 | 3040 | 3480 | 5820

From patent US20250092151A1 (ALTRUBIO, published 2025)
